This note sets out measurements from the Immune Epitope Database (IEDB).

The target in one assay is HLA-B*40:02. Put plainly: IEDB peptide-MHC binding, purified MHC/competitive/radioactivity; filed as Kd, often an IC50 or EC50 that approximates it; ≥ and ≤ were set here for values at or beyond the usual limits of such assays. Conditions: source organism: SARS coronavirus Tor2.
In a further assay the target is HLA-B*44:02. The assay is described as above. Conditions: source organism: SARS coronavirus Tor2.
Assay [1] has as its target HLA-B*40:01. The assay is described as above. The settings on record: source organism: SARS coronavirus Tor2.
Another assay concerns the target HLA-B*45:01. The assay is described as above. Conditions: source organism: SARS coronavirus Tor2.
The target in assay [2] is HLA-B*18:01. The description is as above. The settings on record: source organism: SARS coronavirus Tor2.
For another assay, the target named is HLA-B*44:03. Described as above. Conditions: source organism: SARS coronavirus Tor2.
The target of the next assay is HLA-A*32:01. Described as above.
The target of another assay is HLA-A*29:02. The assay is described as above.
For a further assay, the target named is HLA-A*30:02. The description is as above.
The next assay has as its target HLA-A*26:01. The assay is described as above.
Assay [3] addresses HLA-A*01:01. The description is as above.
A further assay concerns the target HLA-A*30:01. The assay is described as above.
A further assay has as its target HLA-A*02:12. Put plainly: IEDB peptide-MHC binding, purified MHC/direct/fluorescence; filed as Kd, often an IC50 or EC50 that approximates it; ≥ and ≤ were set here for values at or beyond the usual limits of such assays. The settings on record: source organism: Influenza C virus.
The next assay has as its target HLA-B*58:01. The assay is described as above. Conditions: source organism: Influenza A virus (A/swine/Hong Kong/273/1994(H1N1)).
For a further assay, the target named is HLA-B*27:05. Described as above. The settings on record: source organism: Influenza A virus (A/swine/Hong Kong/273/1994(H1N1)).
For a further assay, the target named is HLA-B*07:02. The assay is described as above. The settings on record: source organism: Influenza A virus (A/swine/Hong Kong/273/1994(H1N1)).
The target in assay [4] is HLA-A*01:01. Described as above. The settings on record: source organism: Influenza A virus (A/swine/Hong Kong/273/1994(H1N1)).
For assay [5], the target named is HLA-A*03:01. Described as above. The settings on record: source organism: Influenza A virus (A/swine/Hong Kong/273/1994(H1N1)).
For assay [6], the target named is HLA-B*15:01. Described as above. The settings on record: source organism: Influenza A virus (A/swine/Hong Kong/273/1994(H1N1)).
For assay [7], the target named is HLA-A*03:01. Nature of the assay: IEDB peptide-MHC binding, purified MHC/competitive/radioactivity; filed as Kd, often an IC50 or EC50 that approximates it; ≥ and ≤ were set here for values at or beyond the usual limits of such assays. Conditions: source organism: Dengue virus 4 Philippines/H241/1956.
The target of the next assay is HLA-A*02:03. The description is as above. Conditions: source organism: Vaccinia virus WR.
Another assay concerns the target HLA-A*02:06. Described as above. The settings on record: source organism: Vaccinia virus WR.
In a further assay the target is HLA-A*02:02. The description is as above. Conditions: source organism: Vaccinia virus WR.
Assay [8] addresses HLA-B*15:01. The assay is described as above. Conditions: source organism: Vaccinia virus WR.
Assay [9] has as its target HLA-B*18:01. Nature of the assay: IEDB peptide-MHC binding, purified MHC/direct/fluorescence; filed as Kd, often an IC50 or EC50 that approximates it; ≥ and ≤ were set here for values at or beyond the usual limits of such assays.
Assay [10] concerns the target HLA-B*40:01. Described as above. The settings on record: source organism: Entamoeba histolytica HM-1:IMSS.
Setting [11] is: source organism: Mammarenavirus brazilense.
Where [12] appears, read: source organism: Dengue virus 1 Brazil/97-11/1997.
[13] abbreviates: source organism: Vaccinia virus WR.
Where [14] appears, read: source organism: Dengue virus 4 Philippines/H241/1956.
The mark [15] stands for this setting: source organism: Vaccinia virus Copenhagen.
[16] abbreviates: source organism: Dengue virus 3 Martinique/1243/1999.
The mark [17] stands for this setting: source organism: Mammarenavirus guanaritoense.

The Kd is a measure of binding affinity in units of concentration. Turning to EEVVLKNGEL, the Kd worked out at 13.9 nM in the assay with HLA-B*40:02; 46.7 nM in the assay with HLA-B*44:02; 6.33 nM with HLA-B*40:01 [1]; 1330 nM with HLA-B*45:01; 381 nM in the assay with HLA-B*18:01 [2]; 14.8 nM with HLA-B*44:03.

EWIFRALKY: the Kd is ≥ 77800 nM with HLA-A*32:01 (setting [11]); 183 nM with HLA-A*29:02 (setting [11]); 7750 nM with HLA-A*30:02 (setting [11]); 7080 nM in the assay with HLA-A*26:01 (setting [11]); ≥ 37300 nM in the assay with HLA-A*01:01 [3] (setting [11]); ≥ 38000 nM with HLA-A*30:01 (setting [11]).

Consider GMFNMLSTV, for which the Kd with HLA-A*02:12 was 49 nM; with HLA-B*58:01, ≥ 20000 nM; with HLA-B*27:05, 10100 nM; with HLA-B*07:02, ≥ 20000 nM; with HLA-A*01:01 [4], ≥ 20000 nM; with HLA-A*03:01 [5], ≥ 20000 nM. In the assay with HLA-B*15:01 [6], this sequence showed a Kd of 105 nM.

As for IGILLTWLGL, the Kd with HLA-A*32:01 (setting [12]) is ≥ 38800 nM.

For ILCYFILIF, in the assay with HLA-A*32:01 (setting [13]), the Kd came to 11500 nM.

Regarding ILKRWGQLK, the Kd with HLA-A*30:01 (setting [14]) was determined as 318 nM; with HLA-A*03:01 [7], 3.58 nM.

On to KIDFLFFII, for which the Kd with HLA-A*32:01 (setting [15]) turned out to be 1.97 nM.

With KSAHFLLIF, the equilibrium dissociation constant (Kd) in the assay with HLA-A*32:01 (setting [13]) came to 0.185 nM.

Take KVKNVHIGG: the Kd in the assay with HLA-A*30:01 (setting [13]) turned out to be 0.338 nM.

Consider LLVWHTWQKQ, for which the dissociation constant Kd with HLA-A*32:01 (setting [16]) is ≥ 23300 nM.

Regarding LTLDIFYLF, in the assay with HLA-A*32:01 (setting [13]), the Kd amounted to 4.4 nM.

For LVKESMASL, the equilibrium dissociation constant (Kd) is 9.46 nM in the assay with HLA-A*02:03, 94.8 nM with HLA-A*30:01 (setting [13]), 136 nM in the assay with HLA-A*02:06 and 1120 nM with HLA-A*02:02.

For the sequence MILFLKLLI, the Kd with HLA-A*32:01 (setting [13]) came out at 715 nM.

For the sequence MLDDLTMGY, the Kd stood at 2140 nM with HLA-A*32:01 (setting [17]); 125 nM with HLA-A*29:02 (setting [17]); 226 nM with HLA-A*30:02 (setting [17]); 7290 nM with HLA-A*26:01 (setting [17]); 1.12 nM in the assay with HLA-A*01:01 [3] (setting [17]); 12900 nM with HLA-A*30:01 (setting [17]).

As for MSIMPVLAY, the Kd with HLA-A*32:01 (setting [13]) came to 99.7 nM; with HLA-B*15:01 [8], 1.37 nM.

On to MSRKFMQVY, for which, in the assay with HLA-A*30:01 (setting [13]), the equilibrium dissociation constant (Kd) was found to be 1.46 nM.

Regarding NEAKVLELL, the Kd with HLA-B*18:01 [9] (source organism: West Nile virus) is 38 nM.

For the sequence QVLMMRTTW, the Kd with HLA-A*32:01 (source organism: Dengue virus 2 Jamaica/1409/1983) was determined as 73.5 nM.

For the sequence RERGLALHV, the Kd with HLA-B*18:01 [9] (source organism: Salmonella enterica subsp. enterica serovar Typhimurium str. LT2) worked out at 4500 nM.

For REVEEIIKY, the equilibrium dissociation constant (Kd) with HLA-B*40:01 [10] worked out at 94.1 nM; in the assay with HLA-B*18:01 [9] (source organism: Entamoeba histolytica HM-1:IMSS), 25.3 nM.

With RLIVLFEVF, the Kd with HLA-A*32:01 (setting [13]) came to 12.6 nM; in the assay with HLA-B*15:01 [8], 6.84 nM.

RTRGPLGIL: in the assay with HLA-A*30:01 (setting [13]), the Kd is 0.0861 nM.

Turning to RVHDTNATK, the Kd with HLA-A*30:01 (setting [13]) was 7.65 nM.

Take RVKQISIST: the Kd with HLA-A*30:01 (setting [15]) was 0.369 nM.

SAVPVHWVPT: the dissociation constant (Kd) in the assay with HLA-A*32:01 (setting [16]) came to 2000 nM.

Take SKGWKNWQEV: the dissociation constant (Kd) with HLA-A*32:01 (setting [14]) came to 19800 nM.

SKGWNDWQQV: the Kd in the assay with HLA-A*32:01 (setting [12]) was ≥ 56200 nM.

As for WNTGFDWITD, the Kd with HLA-A*32:01 (setting [14]) was 1150 nM.
